{"source": "patent US20120114667A1", "key": {"Macaque α5β1 (Macaque)": {"target": "Macaque α5β1 (Macaque)", "experiment": "FACS on macaque PBMC, isotype control"}, "[1]": {"target": "αvβ6 integrin on HT29 cells (human) (UniProt P06756)", "sequence (P06756 31-1048, chain 1 of 2)": "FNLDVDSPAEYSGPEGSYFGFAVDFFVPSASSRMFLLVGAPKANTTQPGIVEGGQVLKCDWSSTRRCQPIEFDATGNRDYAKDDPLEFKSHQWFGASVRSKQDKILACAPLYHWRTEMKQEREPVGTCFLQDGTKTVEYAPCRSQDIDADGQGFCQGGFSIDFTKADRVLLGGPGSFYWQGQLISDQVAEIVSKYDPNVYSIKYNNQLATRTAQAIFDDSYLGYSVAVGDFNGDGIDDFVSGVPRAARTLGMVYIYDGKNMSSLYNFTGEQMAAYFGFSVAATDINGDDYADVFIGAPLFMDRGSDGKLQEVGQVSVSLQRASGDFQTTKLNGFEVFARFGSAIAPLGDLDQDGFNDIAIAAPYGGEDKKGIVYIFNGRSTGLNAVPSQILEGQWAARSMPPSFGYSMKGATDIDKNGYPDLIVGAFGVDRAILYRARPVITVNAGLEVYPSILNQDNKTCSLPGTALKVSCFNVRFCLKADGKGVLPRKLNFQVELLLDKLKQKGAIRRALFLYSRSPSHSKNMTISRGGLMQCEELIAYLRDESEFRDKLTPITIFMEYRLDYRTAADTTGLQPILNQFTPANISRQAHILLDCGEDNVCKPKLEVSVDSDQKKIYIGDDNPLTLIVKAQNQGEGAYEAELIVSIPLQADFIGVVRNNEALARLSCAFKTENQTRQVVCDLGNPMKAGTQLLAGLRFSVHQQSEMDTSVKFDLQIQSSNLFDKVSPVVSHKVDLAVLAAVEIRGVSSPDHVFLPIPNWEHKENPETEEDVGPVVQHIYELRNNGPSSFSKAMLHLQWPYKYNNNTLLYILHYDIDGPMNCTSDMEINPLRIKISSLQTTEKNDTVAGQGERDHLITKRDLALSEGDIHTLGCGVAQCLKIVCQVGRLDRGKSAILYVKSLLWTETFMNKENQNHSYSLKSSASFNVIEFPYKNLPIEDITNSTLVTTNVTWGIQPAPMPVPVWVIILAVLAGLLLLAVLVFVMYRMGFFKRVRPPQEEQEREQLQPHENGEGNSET", "sequence (P18564 22-788, chain 2 of 2, further chain)": "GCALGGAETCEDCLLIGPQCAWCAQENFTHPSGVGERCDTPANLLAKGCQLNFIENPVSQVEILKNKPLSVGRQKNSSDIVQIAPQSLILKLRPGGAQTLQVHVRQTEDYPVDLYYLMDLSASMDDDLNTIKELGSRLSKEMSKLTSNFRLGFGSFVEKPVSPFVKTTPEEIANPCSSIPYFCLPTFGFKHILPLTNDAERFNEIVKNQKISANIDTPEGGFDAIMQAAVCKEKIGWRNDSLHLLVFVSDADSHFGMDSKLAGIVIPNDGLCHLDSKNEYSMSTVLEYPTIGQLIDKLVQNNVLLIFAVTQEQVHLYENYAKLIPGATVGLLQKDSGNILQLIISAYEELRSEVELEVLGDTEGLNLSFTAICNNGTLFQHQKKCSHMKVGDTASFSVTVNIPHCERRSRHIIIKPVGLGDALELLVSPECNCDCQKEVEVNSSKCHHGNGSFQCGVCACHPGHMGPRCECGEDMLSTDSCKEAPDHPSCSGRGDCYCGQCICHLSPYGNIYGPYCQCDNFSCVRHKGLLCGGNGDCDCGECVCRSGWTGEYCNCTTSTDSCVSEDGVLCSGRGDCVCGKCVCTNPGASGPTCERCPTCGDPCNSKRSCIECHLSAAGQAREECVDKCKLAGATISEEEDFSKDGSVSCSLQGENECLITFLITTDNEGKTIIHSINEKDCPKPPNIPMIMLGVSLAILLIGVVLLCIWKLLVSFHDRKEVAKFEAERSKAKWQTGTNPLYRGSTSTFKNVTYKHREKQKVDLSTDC", "experiment": "FACS on HT29 cells, positive control"}, "[2]": {"target": "β1 integrin chain on HT29 cells (α5 null line) (human) (UniProt P05556)", "sequence (P05556 21-798)": "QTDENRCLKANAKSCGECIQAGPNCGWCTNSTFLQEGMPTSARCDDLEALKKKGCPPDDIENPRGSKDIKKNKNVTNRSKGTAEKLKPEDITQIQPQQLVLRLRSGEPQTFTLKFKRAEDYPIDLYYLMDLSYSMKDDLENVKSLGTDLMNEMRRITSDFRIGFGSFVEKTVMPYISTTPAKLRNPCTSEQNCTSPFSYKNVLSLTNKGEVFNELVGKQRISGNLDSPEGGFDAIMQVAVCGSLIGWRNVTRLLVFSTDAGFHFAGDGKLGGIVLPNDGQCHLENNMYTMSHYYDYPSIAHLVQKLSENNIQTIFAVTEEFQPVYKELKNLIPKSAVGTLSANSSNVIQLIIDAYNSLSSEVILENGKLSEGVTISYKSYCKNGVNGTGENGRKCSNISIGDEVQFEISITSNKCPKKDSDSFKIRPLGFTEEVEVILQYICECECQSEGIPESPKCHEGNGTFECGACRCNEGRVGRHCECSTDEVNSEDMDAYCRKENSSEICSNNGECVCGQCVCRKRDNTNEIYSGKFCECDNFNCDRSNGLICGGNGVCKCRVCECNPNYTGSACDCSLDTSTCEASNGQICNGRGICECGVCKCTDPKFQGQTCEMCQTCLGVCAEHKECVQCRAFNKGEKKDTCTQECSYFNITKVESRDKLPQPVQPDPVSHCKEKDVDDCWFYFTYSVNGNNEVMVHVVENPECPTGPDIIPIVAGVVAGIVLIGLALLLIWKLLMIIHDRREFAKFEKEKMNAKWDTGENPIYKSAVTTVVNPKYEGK", "experiment": "FACS on HT29 cells, isotype control"}, "[3]": {"target": "human α5β1 integrin (human) (UniProt P08648)", "sequence (P08648 42-1049, chain 1 of 2)": "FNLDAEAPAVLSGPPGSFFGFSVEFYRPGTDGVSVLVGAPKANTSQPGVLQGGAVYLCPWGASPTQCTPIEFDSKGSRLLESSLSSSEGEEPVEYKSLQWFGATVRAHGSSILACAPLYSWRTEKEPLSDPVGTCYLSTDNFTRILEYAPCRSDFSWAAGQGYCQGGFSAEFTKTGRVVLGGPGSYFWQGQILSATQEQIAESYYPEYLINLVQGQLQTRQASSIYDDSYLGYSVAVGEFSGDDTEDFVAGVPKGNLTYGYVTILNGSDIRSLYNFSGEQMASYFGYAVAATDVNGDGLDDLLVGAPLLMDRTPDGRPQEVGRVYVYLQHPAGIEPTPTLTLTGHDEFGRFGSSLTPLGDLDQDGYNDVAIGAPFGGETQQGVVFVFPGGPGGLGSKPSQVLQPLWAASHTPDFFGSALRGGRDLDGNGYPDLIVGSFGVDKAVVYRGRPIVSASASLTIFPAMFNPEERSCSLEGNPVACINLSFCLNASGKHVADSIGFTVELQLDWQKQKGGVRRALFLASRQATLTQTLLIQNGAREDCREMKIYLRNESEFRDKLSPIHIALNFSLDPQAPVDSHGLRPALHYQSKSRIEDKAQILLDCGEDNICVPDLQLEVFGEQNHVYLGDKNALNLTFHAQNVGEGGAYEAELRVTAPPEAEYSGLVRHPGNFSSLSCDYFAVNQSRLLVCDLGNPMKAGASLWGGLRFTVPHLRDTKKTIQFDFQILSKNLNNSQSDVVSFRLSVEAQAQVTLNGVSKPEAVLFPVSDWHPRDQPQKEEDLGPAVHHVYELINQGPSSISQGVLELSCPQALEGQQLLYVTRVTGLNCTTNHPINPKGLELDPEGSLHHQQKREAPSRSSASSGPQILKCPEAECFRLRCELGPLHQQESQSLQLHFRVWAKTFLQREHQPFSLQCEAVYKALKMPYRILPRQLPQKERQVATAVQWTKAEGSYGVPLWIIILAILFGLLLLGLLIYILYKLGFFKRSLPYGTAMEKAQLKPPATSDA", "sequence (P05556 21-798, chain 2 of 2, further chain)": "as the sequence (P05556 21-798) above", "experiment": "FACS on human α5β1-transfected 300.19 cells, negative control"}, "[4]": {"target": "human α5β1 integrin (human) (UniProt P08648)", "experiment": "FACS on human α5β1-transfected against untransfected 300.19 cells, negative control"}, "[5]": {"target": "β1 integrin chain on HT29 cells (α5 null line) (human) (UniProt P05556)", "experiment": "FACS on HT29 cells (no α5, β1 present), control antibody to α5β1"}, "[6]": {"target": "macaque αV integrin chain on T cells (Macaque)", "experiment": "FACS on macaque PBMC, control antibody"}, "[7]": {"target": "αv integrin chain on HT29 cells (human) (UniProt P06756)", "sequence (P06756 31-1048)": "as the sequence (P06756 31-1048, chain 1 of 2) above", "experiment": "FACS on HT29 cells, positive control"}, "[8]": {"target": "avb3 and avb5 integrins on A375M cells", "experiment": "cell-based or functional assay"}, "[9]": {"target": "macaque β1 integrin chain on T cells (Macaque)", "experiment": "FACS on macaque PBMC, control antibody"}, "[10]": {"target": "β1 integrin chain on HT29 cells (α5 null line) (human) (UniProt P05556)", "experiment": "FACS on HT29 cells, positive control"}}}
{"substance": "Human IgG2/4", "values": [{"measurement": "Geo Mean on Macaque T-cells IgG detection", "setting": "Macaque α5β1 (Macaque)", "value": 3}]}
{"substance": "MAB2077Z avb6 (antibody)", "values": [{"measurement": "Binding Geomean", "setting": "[1]", "value": 39.2}]}
{"substance": "Mouse IgG2a (antibody)", "values": [{"measurement": "Binding Geomean", "setting": "[2]", "value": 10.2}]}
{"substance": "Human IgG2 (antibody)", "values": [{"measurement": "X Geo Mean", "setting": "[3]", "value": 12}, {"measurement": "Ratio (α5β1 expressing cells / parental cells)", "setting": "[4]", "value": 0.8}, {"measurement": "Binding Geomean", "setting": "[2]", "value": 2.84}]}
{"substance": "mAb 1969 (antibody)", "values": [{"measurement": "Binding Geomean", "setting": "[5]", "value": 2.69}]}
{"substance": "L230 (antibody)", "values": [{"measurement": "Geo Mean on Macaque T-cells IgG detection", "setting": "[6]", "value": 3}, {"measurement": "Binding Geomean", "setting": "[7]", "value": 294}, {"measurement": "Osteopontin Adhesion (% inhibition) at 5 ug/ml, A375M cells", "setting": "[8]", "value": 97, "unit": "%"}, {"measurement": "Vitronectin Adhesion (% inhibition) at 5 ug/ml, A375M cells", "setting": "[8]", "value": 96, "unit": "%"}]}
{"substance": "4b4 anti beta1 (antibody)", "values": [{"measurement": "Geo Mean on Macaque T-cells IgG detection", "setting": "[9]", "value": 141}, {"measurement": "Binding Geomean", "setting": "[10]", "value": 362}]}
{"substance": "Human IgG4 (antibody)", "values": [{"measurement": "Binding Geomean", "setting": "[2]", "value": 3.2}]}
{"substance": "Mouse IgG1 (antibody)", "values": [{"measurement": "X Geo Mean", "setting": "[3]", "value": 14.9}, {"measurement": "Ratio (α5β1 expressing cells / parental cells)", "setting": "[4]", "value": 0.9}, {"measurement": "Binding Geomean", "setting": "[2]", "value": 2.55}, {"measurement": "Geo Mean on Macaque T-cells IgG detection", "setting": "Macaque α5β1 (Macaque)", "value": 2}]}
